Target: T1, recombinant human (rh) BMP2 (human) (UniProt P12643)
T1 sequence: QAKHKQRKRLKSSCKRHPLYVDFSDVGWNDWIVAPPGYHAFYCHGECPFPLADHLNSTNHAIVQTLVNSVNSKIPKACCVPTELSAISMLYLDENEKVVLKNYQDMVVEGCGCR

B1: GREM1^WT-mCherry (human Gremlin1 fused to mCherry) (natural protein)
chain: KKKGSQGAIPPPDKAQHNDSEQTQSPQQPGSRNRGRGQGRGTAMPGEEVLESSQEALHVTERKYLKRDWCKTQPLKQTIHEEGCNSRTIINRFCYGQCNSFYIPRHIRKEEGSFQSCSFCKPKKFTTMMVTLNCPELQPPTKKKRVTRVKQCRCISIDLD
  GREM1-mCherry uptake into HCT116 cells (integrated mCherry fluorescence per cell) from conditioned medium with 200 ng/ml BMP2 versus vehicle, overnight (16 h): 5 fold

Reference: PMC12597263
